These results are taken from publication PMC6003418.

The target in test [1] is SnLH3. In words: SAXS.
In test [2] the target is SnLH3. In words: native gel or EMSA.

On to SnLH3 (natural protein), for which the stoichiometry N in test [1] and in test [2] was 3 throughout.
